The text below walks through data of paper PMC4403447, “Hsp90 regulates the dynamics of its cochaperone Sti1 and the transfer of Hsp70 between modules” (Nature Communications, 2015).

By stoichiometry N is commonly meant a count of units in the complex or per binding partner.

Settings in all cases: both partners purified
Assay [1] has as its target T1, yHsp70 (Ssa1) (yeast, UniProt P10591 1-642).
T1 construct: Yeast Hsp70 Ssa1, full length; The strain carries a 6xHis-SSA1 gene; The methods speak of cleavage of the His6-SUMO tag or His-tag in general, and it is not clear whether this holds for Ssa1; source: Pichia pastoris KM71H-Ssa1, purified (Hi-Trap, Superdex 200)
The assay can be described thus: SAXS; mixtures of a Sti1 variant and Hsp70 at 1:1 and 1:2; solute 1 to 10 mg/ml; in-house SAXSess mc2; masses from I(0).

Assay [2] addresses T1, yHsp70 (Ssa1). The assay can be described thus: SPR; Hsp70 amine-coupled to a CM5 chip, Sti1 variants as analyte; 40 mM Hepes pH 7.5, 20 mM KCl, 5 mM MgCl2, 0.005% Tween; 10 μl/min; 20 °C; Langmuir isotherm; affinities shown normalized to wild-type Sti1. (In general: SPR reads the build-up and loss of mass on a sensor chip optically.)
In assay [3] the target is T2, fluorescein-labelled yHsp70 (Ssa1) (yeast, UniProt P10591 1-642, 5-(and -6)-carboxyfluorescein covalently coupled (amine-reactive dye); sites not stated).
T2 construct: Yeast Hsp70 Ssa1, full length, labelled with carboxyfluorescein; Same protein as m11, with the fluorescent label used for AUC; also called fluorescently labelled yHsp70; fluorescently labelled Ssa1; source: Pichia pastoris KM71H-Ssa1, purified (Hi-Trap, Superdex 200), then labelled
The assay is described as follows: AUC; ternary complexes, fluorescence detection: 0.5 μM fluorescein-labelled yHsp70 and 3 μM yHsp90 with 0.5 to 8 μM Sti1 variant; 10 mM potassium phosphate pH 7.5; 20 °C; 42,000 r.p.m.; dc/dt plots.

Another assay deals with T3, yHsp90 (Hsp82) (yeast, UniProt P02829 1-709).
T3 construct: Yeast Hsp90 Hsp82; source: E. coli BL21 (DE3) Codon Plus, purified (Hi-Trap, Superdex 200); not shown: 6xHis-SUMO or thrombin-cleavable 6xHis, N-terminal, cleaved
The assay is described as above.

T1 sequence (P10591 whole entry): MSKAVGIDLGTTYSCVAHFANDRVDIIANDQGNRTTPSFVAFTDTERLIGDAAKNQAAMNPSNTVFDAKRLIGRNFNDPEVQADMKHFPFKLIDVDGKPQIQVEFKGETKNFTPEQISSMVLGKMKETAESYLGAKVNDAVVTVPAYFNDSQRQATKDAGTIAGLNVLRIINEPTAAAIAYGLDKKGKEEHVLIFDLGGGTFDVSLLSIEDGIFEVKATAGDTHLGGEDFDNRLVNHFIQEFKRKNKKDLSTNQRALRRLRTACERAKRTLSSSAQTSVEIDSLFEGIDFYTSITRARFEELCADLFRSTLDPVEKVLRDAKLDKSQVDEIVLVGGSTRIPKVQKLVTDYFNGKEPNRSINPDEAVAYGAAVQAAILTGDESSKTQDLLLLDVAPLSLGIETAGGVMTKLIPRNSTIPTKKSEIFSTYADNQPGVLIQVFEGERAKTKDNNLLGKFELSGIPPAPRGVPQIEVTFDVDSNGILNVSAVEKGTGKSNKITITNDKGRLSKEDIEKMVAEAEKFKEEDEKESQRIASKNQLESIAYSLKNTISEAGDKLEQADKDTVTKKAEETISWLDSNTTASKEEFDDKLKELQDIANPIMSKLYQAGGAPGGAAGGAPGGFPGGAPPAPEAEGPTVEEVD
T2 sequence (P10591 whole entry): as above

B1: Sti1 (stress-inducible protein 1), wild type (natural protein, S. cerevisiae, UniProt P15705 1-589, looked up)
chain: MSLTADEYKQQGNAAFTAKDYDKAIELFTKAIEVSETPNHVLYSNRSACYTSLKKFSDALNDANECVKINPSWSKGYNRLGAAHLGLGDLDEAESNYKKALELDASNKAAKEGLDQVHRTQQARQAQPDLGLTQLFADPNLIENLKKNPKTSEMMKDPQLVAKLIGYKQNPQAIGQDLFTDPRLMTIMATLMGVDLNMDDINQSNSMPKEPETSKSTEQKKDAEPQSDSTTSKENSSKAPQKEESKESEPMEVDEDDSKIEADKEKAEGNKFYKARQFDEAIEHYNKAWELHKDITYLNNRAAAEYEKGEYETAISTLNDAVEQGREMRADYKVISKSFARIGNAYHKLGDLKKTIEYYQKSLTEHRTADILTKLRNAEKELKKAEAEAYVNPEKAEEARLEGKEYFTKSDWPNAVKAYTEMIKRAPEDARGYSNRAAALAKLMSFPEAIADCNKAIEKDPNFVRAYIRKATAQIAVKEYASALETLDAARTKDAEVNNGSSAREIDQLYYKASQQRFQPGTSNETPEETYQRAMKDPEVAAIMQDPVMQSILQQAQQNPAALQEHMKNPEVFKKIQTLIAAGIIRTGR
notes: Sti1, yeast cochaperone of Hsp70 and Hsp90, full length; also called wild-type Sti1; full-length Sti1; source: E. coli BL21 (DE3) Codon Plus, purified (Hi-Trap, Superdex 200); not shown: 6xHis-SUMO or thrombin-cleavable 6xHis, N-terminal, cleaved
For the molecule B1, in the assay with yHsp70 (Ssa1) [1], the “stoichiometry N” value worked out at 1.

B2: Sti1 R469A (natural protein, S. cerevisiae, UniProt P15705 1-589, looked up)
chain: MSLTADEYKQQGNAAFTAKDYDKAIELFTKAIEVSETPNHVLYSNRSACYTSLKKFSDALNDANECVKINPSWSKGYNRLGAAHLGLGDLDEAESNYKKALELDASNKAAKEGLDQVHRTQQARQAQPDLGLTQLFADPNLIENLKKNPKTSEMMKDPQLVAKLIGYKQNPQAIGQDLFTDPRLMTIMATLMGVDLNMDDINQSNSMPKEPETSKSTEQKKDAEPQSDSTTSKENSSKAPQKEESKESEPMEVDEDDSKIEADKEKAEGNKFYKARQFDEAIEHYNKAWELHKDITYLNNRAAAEYEKGEYETAISTLNDAVEQGREMRADYKVISKSFARIGNAYHKLGDLKKTIEYYQKSLTEHRTADILTKLRNAEKELKKAEAEAYVNPEKAEEARLEGKEYFTKSDWPNAVKAYTEMIKRAPEDARGYSNRAAALAKLMSFPEAIADCNKAIEKDPNFVRAYIAKATAQIAVKEYASALETLDAARTKDAEVNNGSSAREIDQLYYKASQQRFQPGTSNETPEETYQRAMKDPEVAAIMQDPVMQSILQQAQQNPAALQEHMKNPEVFKKIQTLIAAGIIRTGR
notes: source: E. coli BL21 (DE3) Codon Plus, purified (Hi-Trap, Superdex 200); not shown: 6xHis-SUMO or thrombin-cleavable 6xHis, N-terminal, cleaved
Turning to B2, the binding result in the assay with yHsp70 (Ssa1) [2] is “binds”.

B3: Sti1 N39A (natural protein, S. cerevisiae, UniProt P15705 1-589, looked up)
chain: MSLTADEYKQQGNAAFTAKDYDKAIELFTKAIEVSETPAHVLYSNRSACYTSLKKFSDALNDANECVKINPSWSKGYNRLGAAHLGLGDLDEAESNYKKALELDASNKAAKEGLDQVHRTQQARQAQPDLGLTQLFADPNLIENLKKNPKTSEMMKDPQLVAKLIGYKQNPQAIGQDLFTDPRLMTIMATLMGVDLNMDDINQSNSMPKEPETSKSTEQKKDAEPQSDSTTSKENSSKAPQKEESKESEPMEVDEDDSKIEADKEKAEGNKFYKARQFDEAIEHYNKAWELHKDITYLNNRAAAEYEKGEYETAISTLNDAVEQGREMRADYKVISKSFARIGNAYHKLGDLKKTIEYYQKSLTEHRTADILTKLRNAEKELKKAEAEAYVNPEKAEEARLEGKEYFTKSDWPNAVKAYTEMIKRAPEDARGYSNRAAALAKLMSFPEAIADCNKAIEKDPNFVRAYIRKATAQIAVKEYASALETLDAARTKDAEVNNGSSAREIDQLYYKASQQRFQPGTSNETPEETYQRAMKDPEVAAIMQDPVMQSILQQAQQNPAALQEHMKNPEVFKKIQTLIAAGIIRTGR
notes: also called TPR1-defective construct; source: E. coli BL21 (DE3) Codon Plus, purified (Hi-Trap, Superdex 200); not shown: 6xHis-SUMO or thrombin-cleavable 6xHis, N-terminal, cleaved
B3: the binding result (with yHsp70 (Ssa1) [2]; in assay [3]; with yHsp90 (Hsp82)) was “binds” in each case.

B4: Sti1 TPR2A–TPR2B (domain or fragment, S. cerevisiae)
chain: ADKEKAEGNKFYKARQFDEAIEHYNKAWELHKDITYLNNRAAAEYEKGEYETAISTLNDAVEQGREMRADYKVISKSFARIGNAYHKLGDLKKTIEYYQKSLTEHRTADILTKLRNAEKELKKAEAEAYVNPEKAEEARLEGKEYFTKSDWPNAVKAYTEMIKRAPEDARGYSNRAAALAKLMSFPEAIADCNKAIEKDPNFVRAYIRKATAQIAVKEYASALETLDAARTKDAEVNNGSSAREIDQLYYKASQ
notes: TPR2A-TPR2B segment of Sti1; also called TPR2A–TPR2B fragment; TPR1-lacking construct; source: E. coli BL21 (DE3) Codon Plus, purified (Hi-Trap, Superdex 200); not shown: 6xHis-SUMO or thrombin-cleavable 6xHis, N-terminal, cleaved
With B4, the binding result (with yHsp70 (Ssa1) [2]; in assay [3]; in the assay with yHsp90 (Hsp82)) was “binds” throughout.
